Test results reported in PMC3431187 (Molecular cell, 2012).
Changes are numbered by the printed parent chain. No end group written: not given here. fluorescein = fluorescein label on the N-terminus, attached through a 6-aminohexanoyl (Ahx) spacer; Ahx = NCCCCCC(=O)O

T1: rhophilin 2-PDZ K576A/K579A (human, UniProt Q8IUC4 515-593, K576A | K579A)
T1 sequence (looked up): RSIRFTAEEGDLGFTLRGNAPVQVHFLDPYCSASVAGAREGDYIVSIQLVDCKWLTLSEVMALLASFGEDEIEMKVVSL

T2: rhophilin 2-PDZ K576E/K579E (human, UniProt Q8IUC4 515-593, K576E | K579E)
T2 sequence (looked up): T1 sequence (looked up) with A62E, A65E

B1: rhophilin 2-PDZ (PDZ domain of rhophilin-2), wild type (domain or fragment, human, UniProt Q8IUC4 515-593, looked up)
chain: T1 sequence (looked up) with A62K, A65K
B2: F-Ahx-EYLGLDVPV (N-fluorescein-labeled ErbB2 C-terminal peptide) (peptide)
peptide: {fluorescein-Ahx}-EYLGLDVPV
B3: GST-EYLGLDVPV (GST fusion of the C-terminal peptide of ErbB2) (peptide)
chain: {GST}-EYLGLDVPV
B4: F-Ahx-IRDYTQSSSSL (N-terminal-fluorescein-labeled mGluR5 C-terminal peptide) (peptide)
peptide: {fluorescein-Ahx}-IRDYTQSSSSL

Tests used:
[1] = target: other peptides (tested with rhophilin 2-PDZ, Table S4); experiment: fluorescence polarisation
[2] = target: B2; experiment: fluorescence polarisation
[3] = target: B1; experiment: fluorescence polarisation
[4] = target: B1; experiment: pull-down
[5] = target: T1, rhophilin 2-PDZ K576A/K579A; experiment: pull-down
[6] = target: T2, rhophilin 2-PDZ K576E/K579E; experiment: pull-down
[7] = target: tamalin-PDZ (PDZ domain of tamalin), wild type (mouse, UniProt Q9JJA9 100-186); experiment: fluorescence polarisation
Chain of tamalin-PDZ (PDZ domain of tamalin), wild type (Q9JJA9 100-186): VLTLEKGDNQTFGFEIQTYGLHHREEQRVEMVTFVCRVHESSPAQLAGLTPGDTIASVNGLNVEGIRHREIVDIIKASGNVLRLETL

With B1 the fold decrease in affinity with PM vesicles against without [1] was < 1.8 fold and the “fold increase in affinity with PM vesicles against without” value [2] was 2 fold.

B2: binds [3].

B3: binds [4]; binds [5]; binds [6].

B4: binds [7].
